Measurements: patent publication US20210054094A1 (Hoffmann-La Roche, published 2021)

Biological target: human GPRC5D (human, UniProt Q9NZD1 1-345)
Assay: cell-based or functional assay

Chain of human GPRC5D (Q9NZD1 whole entry): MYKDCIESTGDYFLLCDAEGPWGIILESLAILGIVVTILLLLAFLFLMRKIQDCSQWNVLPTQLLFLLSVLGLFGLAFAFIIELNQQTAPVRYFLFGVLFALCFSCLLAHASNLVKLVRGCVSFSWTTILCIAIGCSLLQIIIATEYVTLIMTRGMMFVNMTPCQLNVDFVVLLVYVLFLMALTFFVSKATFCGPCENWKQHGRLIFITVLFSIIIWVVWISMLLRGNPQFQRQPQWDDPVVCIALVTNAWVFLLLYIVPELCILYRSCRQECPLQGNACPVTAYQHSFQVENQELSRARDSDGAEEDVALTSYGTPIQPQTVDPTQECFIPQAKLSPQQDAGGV

Row | Binder | CAR-J2 EC50 (PGLALA-CAR-J activation, L363 target cells) [ng/mL]
1 | P1AE5714 (antibody, V domains shown) VH: ELQLLESGGGLVQPGGSLRLSCAASGFTFSKYAMAWVRQAPGKGLEWVASISTGGVNTYYRDSVKARFTISRDNAKNTLYLQMNSLRAEDTAVYYCATHTGDYFDYWGQGTMVTVSS VL: DIVMTQSPDSLAVSLGERATINCRASQSVSISGINLMNWYQQKPGQQPKLLIYHASILASGVPDRFSGSGSGTDFTLTISSLQAEDVAVYYCQQTRESPLTFGQGTRLEIK | 5.5
2 | P1AE5730 (antibody, V domains shown) VH: ELQLLESGGGLVQPGGSLRLSCAASGFTFSKYAMAWVRQAPGKGLEWVASISTGGVNTYYADSVKGRFTISRDNAKNTLYLQMNSLRAEDTAVYYCATHTGDYFDYWGQGTMVTVSS VL: DIQMTQSPSSLSASVGDRVTITCRASQSVSISGINLMNWYQQKPGKQPKLLIYHASILASGVPSRFSGSGSGTDFTLTISSLQPEDFATYYCQQTRESPLTFGQGTRLEIK | 3.5
3 | P1AE5725 (antibody, V domains shown) VH: EVQLLESGGGLVQPGGSLRLSCAASGFTFSKYAMAWVRQAPGKGLEWVASISTGGVNTYYADSVKGRFTISRDNSKNTLYLQMNSLRAEDTAVYYCATHTGDYFDYWGQGTMVTVSS VL: DIQMTQSPSSLSASVGDRVTITCRASQSVSISGINLMNWYQQKPGQQPKLLIYHASILASGVPSRFSGSGSGTDFTLTISSLQPEDFATYYCQQTRESPLTFGQGTRLEIK | 10.9
4 | P1AE5712 (antibody, V domains shown) VH: EVQLLESGGGLVQPGGSLRLSCAASGFTFSKYAMAWVRQAPGKGLEWVASISTGGVNTYYRDSVKARFTISRDNSKNTLYLQMNSLRAEDTAVYYCATHTGDYFDYWGQGTMVTVSS VL: DIQMTQSPSSLSASVGDRVTITCRASQSVSISGINLMNWYQQKPGKQPKLLIYHASILASGVPSRFSGSGSGTDFTLTISSLQPEDFATYYCQQTRESPLTFGQGTRLEIK | 16.1
5 | P1AE5719 (antibody, V domains shown) VH: ELQLLESGGGLVQPGGSLRLSCAASGFTFSKYAMAWVRQAPGKGLEWVASISTGGVNTYYRDSVKARFTISRDNAKNTLYLQMNSLRAEDTAVYYCATHTGDYFDYWGQGTMVTVSS VL: DIQMTQSPSSLSASVGDRVTITCRASQSVSISGINLMNWYQQKPGQQPKLLIYHASILASGVPSRFSGSGSGTDFTLTISSLQPEDFATYYCQQTRESPLTFGQGTRLEIK | 2.8
6 | P1AE5718 (antibody, V domains shown) VH: ELQLLESGGGLVQPGGSLRLSCAASGFTFSKYAMAWVRQAPGKGLEWVASISTGGVNTYYRDSVKARFTISRDNAKNTLYLQMNSLRAEDTAVYYCATHTGDYFDYWGQGTMVTVSS VL: DIQMTQSPSSLSASVGDRVTITCRASQSVSISGINLMNWYQQKPGKQPKLLIYHASILASGVPSRFSGSGSGTDFTLTISSLQPEDFATYYCQQTRESPLTFGQGTRLEIK | 105
7 | P1AE5709 (antibody, V domains shown) VH: EVQLLESGGGLVQPGGSLRLSCAASGFTFSKYAMAWVRQAPGKGLEWVASISTGGVNTYYRDSVKARFTISRDNSKNTLYLQMNSLRAEDTAVYYCATHTGDYFDYWGQGTMVTVSS VL: EIVLTQSPGTLSLSPGERATLSCRASQSVSISGINLMNWYQQKPGQQPRLLIYHASILASGIPDRFSGSGSGTDFTLTISRLEPEDFAVYYCQQTRESPLTFGQGTRLEIK | 59.4
8 | P1AE5724 (antibody, V domains shown) VH: EVQLLESGGGLVQPGGSLRLSCAASGFTFSKYAMAWVRQAPGKGLEWVASISTGGVNTYYADSVKGRFTISRDNSKNTLYLQMNSLRAEDTAVYYCATHTGDYFDYWGQGTMVTVSS VL: DIQMTQSPSSLSASVGDRVTITCRASQSVSISGINLMNWYQQKPGKQPKLLIYHASILASGVPSRFSGSGSGTDFTLTISSLQPEDFATYYCQQTRESPLTFGQGTRLEIK | 3.6
9 | P1AE5729 (antibody, V domains shown) VH: ELQLLESGGGLVQPGGSLRLSCAASGFTFSKYAMAWVRQAPGKGLEWVASISTGGVNTYYADSVKGRFTISRDNAKNTLYLQMNSLRAEDTAVYYCATHTGDYFDYWGQGTMVTVSS VL: EIVLTQSPGTLSLSPGERATLSCRASQSVSISGINLMNWYQQKPGQQPKLLIYHASILASGIPDRFSGSGSGTDFTLTISRLEPEDFAVYYCQQTRESPLTFGQGTRLEIK | 61.3
10 | P1AE5715 (antibody, V domains shown) VH: ELQLLESGGGLVQPGGSLRLSCAASGFTFSKYAMAWVRQAPGKGLEWVASISTGGVNTYYRDSVKARFTISRDNAKNTLYLQMNSLRAEDTAVYYCATHTGDYFDYWGQGTMVTVSS VL: DIVMTQSPDSLAVSLGERATINCKSSQSVSISGINLMNWYQQKPGQQPKLLIYHASILASGVPDRFSGSGSGTDFTLTISSLQAEDVAVYYCQQTRESPLTFGQGTRLEIK | 3.6
11 | P1AE5728 (antibody, V domains shown) VH: ELQLLESGGGLVQPGGSLRLSCAASGFTFSKYAMAWVRQAPGKGLEWVASISTGGVNTYYADSVKGRFTISRDNAKNTLYLQMNSLRAEDTAVYYCATHTGDYFDYWGQGTMVTVSS VL: EIVLTQSPGTLSLSPGERATLSCRASQSVSISGINLMNWYQQKPGQQPRLLIYHASILASGIPDRFSGSGSGTDFTLTISRLEPEDFAVYYCQQTRESPLTFGQGTRLEIK | 5.6
12 | P1AE5716 (antibody, V domains shown) VH: ELQLLESGGGLVQPGGSLRLSCAASGFTFSKYAMAWVRQAPGKGLEWVASISTGGVNTYYRDSVKARFTISRDNAKNTLYLQMNSLRAEDTAVYYCATHTGDYFDYWGQGTMVTVSS VL: EIVLTQSPGTLSLSPGERATLSCRASQSVSISGINLMNWYQQKPGQQPRLLIYHASILASGIPDRFSGSGSGTDFTLTISRLEPEDFAVYYCQQTRESPLTFGQGTRLEIK | 3.3
13 | P1AE5720 (antibody, V domains shown) VH: EVQLLESGGGLVQPGGSLRLSCAASGFTFSKYAMAWVRQAPGKGLEWVASISTGGVNTYYADSVKGRFTISRDNSKNTLYLQMNSLRAEDTAVYYCATHTGDYFDYWGQGTMVTVSS VL: DIVMTQSPDSLAVSLGERATINCRASQSVSISGINLMNWYQQKPGQQPKLLIYHASILASGVPDRFSGSGSGTDFTLTISSLQAEDVAVYYCQQTRESPLTFGQGTRLEIK | 6.3
14 | P1AE5722 (antibody, V domains shown) VH: EVQLLESGGGLVQPGGSLRLSCAASGFTFSKYAMAWVRQAPGKGLEWVASISTGGVNTYYADSVKGRFTISRDNSKNTLYLQMNSLRAEDTAVYYCATHTGDYFDYWGQGTMVTVSS VL: EIVLTQSPGTLSLSPGERATLSCRASQSVSISGINLMNWYQQKPGQQPRLLIYHASILASGIPDRFSGSGSGTDFTLTISRLEPEDFAVYYCQQTRESPLTFGQGTRLEIK | 4.6
15 | P1AE5721 (antibody, V domains shown) VH: EVQLLESGGGLVQPGGSLRLSCAASGFTFSKYAMAWVRQAPGKGLEWVASISTGGVNTYYADSVKGRFTISRDNSKNTLYLQMNSLRAEDTAVYYCATHTGDYFDYWGQGTMVTVSS VL: DIVMTQSPDSLAVSLGERATINCKSSQSVSISGINLMNWYQQKPGQQPKLLIYHASILASGVPDRFSGSGSGTDFTLTISSLQAEDVAVYYCQQTRESPLTFGQGTRLEIK | 25
16 | P1AE5726 (antibody, V domains shown) VH: ELQLLESGGGLVQPGGSLRLSCAASGFTFSKYAMAWVRQAPGKGLEWVASISTGGVNTYYADSVKGRFTISRDNAKNTLYLQMNSLRAEDTAVYYCATHTGDYFDYWGQGTMVTVSS VL: DIVMTQSPDSLAVSLGERATINCRASQSVSISGINLMNWYQQKPGQQPKLLIYHASILASGVPDRFSGSGSGTDFTLTISSLQAEDVAVYYCQQTRESPLTFGQGTRLEIK | 37.8
17 | P1AE5717 (antibody, V domains shown) VH: ELQLLESGGGLVQPGGSLRLSCAASGFTFSKYAMAWVRQAPGKGLEWVASISTGGVNTYYRDSVKARFTISRDNAKNTLYLQMNSLRAEDTAVYYCATHTGDYFDYWGQGTMVTVSS VL: EIVLTQSPGTLSLSPGERATLSCRASQSVSISGINLMNWYQQKPGQQPKLLIYHASILASGIPDRFSGSGSGTDFTLTISRLEPEDFAVYYCQQTRESPLTFGQGTRLEIK | 79.9
18 | P1AE5723 (antibody, V domains shown) VH: EVQLLESGGGLVQPGGSLRLSCAASGFTFSKYAMAWVRQAPGKGLEWVASISTGGVNTYYADSVKGRFTISRDNSKNTLYLQMNSLRAEDTAVYYCATHTGDYFDYWGQGTMVTVSS VL: EIVLTQSPGTLSLSPGERATLSCRASQSVSISGINLMNWYQQKPGQQPKLLIYHASILASGIPDRFSGSGSGTDFTLTISRLEPEDFAVYYCQQTRESPLTFGQGTRLEIK | 3.7
19 | P1AE5727 (antibody, V domains shown) VH: ELQLLESGGGLVQPGGSLRLSCAASGFTFSKYAMAWVRQAPGKGLEWVASISTGGVNTYYADSVKGRFTISRDNAKNTLYLQMNSLRAEDTAVYYCATHTGDYFDYWGQGTMVTVSS VL: DIVMTQSPDSLAVSLGERATINCKSSQSVSISGINLMNWYQQKPGQQPKLLIYHASILASGVPDRFSGSGSGTDFTLTISSLQAEDVAVYYCQQTRESPLTFGQGTRLEIK | 6.3
20 | P1AE5710 (antibody, V domains shown) VH: EVQLLESGGGLVQPGGSLRLSCAASGFTFSKYAMAWVRQAPGKGLEWVASISTGGVNTYYRDSVKARFTISRDNSKNTLYLQMNSLRAEDTAVYYCATHTGDYFDYWGQGTMVTVSS VL: EIVLTQSPGTLSLSPGERATLSCRASQSVSISGINLMNWYQQKPGQQPKLLIYHASILASGIPDRFSGSGSGTDFTLTISRLEPEDFAVYYCQQTRESPLTFGQGTRLEIK | 3.5
